Data reported in PMC8034617 (Nucleic Acids Research, 2021).
Values belong to the binder of their own block, whether it stands above or below them. Ends that are not written are not given here.

Assays:
[1] = biological target: T1, His-RPS19 wt (human (cDNA from K562), UniProt P39019 1-145); experiment: pull-down
[2] = biological target: T1, His-RPS19 wt; experiment: thermal shift assay

binding result [1]: binds
B1: biotinylated HNRNPK peptide P1 (peptide)
peptide: FPMRGRGGFDRMPPGRGGR
modifications: also: biotin, position not given here

binding result [1]: binds
B2: biotinylated HNRNPK peptide P1m (peptide)
peptide: FPMRGRGGFDRMPPGRGGR
modifications: also: biotinylated, position not given here

binding result [2]: binds
B3: HNRNPK-derived peptide P1m (asymmetrically dimethylated) (peptide)
peptide: FPMRGRGGFDRMPPGRGGR
modifications: also: asymmetrically dimethylated, places not given here
